Assay results published in publication PMC7394560, “Post-replicative pairing of sister ter regions in Escherichia coli involves multiple activities of MatP” (Nature Communications, 2020).

Columns and labels:
[1] = target: T1, MatP (Escherichia coli, UniProt P0A8N0 1-150); assay: pull-down; settings: EMSA: 10 mM Tris pH 7.5, 125 mM NaCl, 2.5 mM MgCl2, 0.5 mM DTT, 5% glycerol, 1 uM DNA, 0.25 ug poly(dI-dC), 30 C; pull-down: 20 mM Tris pH 7.5, 1 mM MgCl2 …
T1 sequence: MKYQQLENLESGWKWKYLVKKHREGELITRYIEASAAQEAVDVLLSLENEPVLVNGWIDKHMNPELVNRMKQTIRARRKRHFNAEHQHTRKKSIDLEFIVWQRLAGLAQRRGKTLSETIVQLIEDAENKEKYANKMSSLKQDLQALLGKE

[2] = target: the molecule itself; assay: native gel or EMSA; 41 bp matS DNA (1 µM) with 3 µM protein; 10 mM Tris pH 7.5, 125 mM NaCl, 2.5 mM MgCl2, 0.5 mM DTT, 5% glycerol, poly(dI-dC); 30 °C for 30 min; 5% native TGE-PAGE; oligomer size on DNA inferred from the mobility of the complexes against theoretical masses
[3] = target: T2, MatPΔ20 untagged (Escherichia coli, UniProt P0A8N0 1-130); assay: EMSA; equivalent efficiency to MatP; EMSA: 10 mM Tris pH 7.5, 125 mM NaCl, 2.5 mM MgCl2, 0.5 mM DTT, 5% glycerol, 1 uM DNA, 0.25 ug poly(dI-dC), 30 C; pull-down: 20 mM Tris pH 7.5, 1 mM MgCl2, 150; settings: protein: recombinant; tags: none; chain copies: 2; label: 5' Cy3 on strand 1; blunt
T2 sequence: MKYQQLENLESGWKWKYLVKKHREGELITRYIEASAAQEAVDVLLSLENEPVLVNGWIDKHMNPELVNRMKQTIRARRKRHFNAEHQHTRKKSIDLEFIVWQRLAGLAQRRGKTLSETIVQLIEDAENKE

[4] = target: T3, MatPΔ20-His (Escherichia coli, UniProt P0A8N0 1-130); assay: EMSA; equivalent efficiency to MatP; faster-migrating complex; EMSA: 10 mM Tris pH 7.5, 125 mM NaCl, 2.5 mM MgCl2, 0.5 mM DTT, 5% glycerol, 1 uM DNA, 0.25 ug poly(dI-dC), 30 C; pull-down: 20 mM Tris pH 7.5, 1 mM MgCl2, 150; settings: protein: recombinant; tags: His tag (MW 32 kDa with tag); chain copies: 2; label: 5' Cy3 on strand 1; blunt
T3 sequence: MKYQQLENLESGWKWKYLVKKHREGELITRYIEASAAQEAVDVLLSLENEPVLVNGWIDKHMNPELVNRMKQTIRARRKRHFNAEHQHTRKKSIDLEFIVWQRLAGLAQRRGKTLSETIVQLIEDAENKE

[5] = target: T1, MatP; assay: EMSA; 3 uM MatP, 2.5 mM Mg2+, poly(dI-dC); proposed tetramer; titration 0.2-2 uM in Suppl. Fig. 7a,b; EMSA: 10 mM Tris pH 7.5, 125 mM NaCl, 2.5 mM MgCl2, 0.5 mM DTT, 5% glycerol, 1 uM DNA, 0.25 ug poly(dI-dC), 30 C; pull-down: 20 mM Tris pH 7.5, 1 mM MgCl2, 150; settings: protein: recombinant; MW 21 kDa); chain copies: 4; label: 5' Cy3 on strand 1; blunt

In the case of DNAf(2matS), the binding signal (% DNAf recovered) [1] is reported as 63.

B1: his-tagged MatPΔ20 (domain or fragment, E. coli, UniProt P0A8N0 1-130, looked up)
chain: MKYQQLENLESGWKWKYLVKKHREGELITRYIEASAAQEAVDVLLSLENEPVLVNGWIDKHMNPELVNRMKQTIRARRKRHFNAEHQHTRKKSIDLEFIVWQRLAGLAQRRGKTLSETIVQLIEDAENKE
notes: MatP of Escherichia coli lacking the last 20 C-terminal residues; theoretical mass of the tagged protein printed as 32 kDa; The printed 32 kDa ('twice bigger' than MatP) is far more than a His tag adds to about 130 residues; also called MatPΔ20-tag; source: E. coli BL21DE3, purified (HisTrap column)
With B1 the “stoichiometry N” value [2] was 2.

B2: untagged MatPΔ20 (domain or fragment, E. coli, UniProt P0A8N0 1-130, looked up)
chain: MKYQQLENLESGWKWKYLVKKHREGELITRYIEASAAQEAVDVLLSLENEPVLVNGWIDKHMNPELVNRMKQTIRARRKRHFNAEHQHTRKKSIDLEFIVWQRLAGLAQRRGKTLSETIVQLIEDAENKE
notes: MatP of Escherichia coli lacking the last 20 C-terminal residues; theoretical mass printed as 18 kDa; source: E. coli BL21DE3 (pET15b containing matPΔ20), purified (heparin column)
With B2 the “stoichiometry N” value [2] was 2.

B3: MatP (natural protein, E. coli, UniProt P0A8N0 1-150, looked up)
chain: MKYQQLENLESGWKWKYLVKKHREGELITRYIEASAAQEAVDVLLSLENEPVLVNGWIDKHMNPELVNRMKQTIRARRKRHFNAEHQHTRKKSIDLEFIVWQRLAGLAQRRGKTLSETIVQLIEDAENKEKYANKMSSLKQDLQALLGKE
notes: MatP, macrodomain Ter protein of Escherichia coli; theoretical mass printed as 21 kDa; also called MatP wt; source: E. coli BL21DE3 (pET15b containing matP), purified (heparin column)
With B3 the “stoichiometry N” value [2] was 4.

B4: matS41 (dsDNA)
DNA 1: AAGTACGGTAAAAGGTGACAGTGTCACTTTCATTGTTGGTA
DNA 2: TACCAACAATGAAAGTGACACTGTCACCTTTTACCGTACTT
B4: binds [3]; binds [4]; binds [5].
